Experimental data as given in publication PMC2949527 (Journal of molecular biology, 2010).

Target: the molecule itself
Assay: NMR solution structure

B1: RFX5(25-90), oligomerization domain of RFX5 (domain or fragment, UniProt P48382 25-90, looked up)
chain: GEPTTLLQRLRGTISKAVQNKVEGILQDVQKFSDNDKLYLYLQLPSGPTTGDKSSEPSTLSNEEYM
stoichiometry N: 2
